Assay results as given in US20090311710A1, “MUTAGENESIS METHODS USING RIBAVIRIN AND/OR RNA REPLICASES” (priority 2002, published 2009).

Tested on: TEM-1 Θ-lactamase (bla) gene expressed in bacteria
Test: Cefotaxime resistance (MIC) conferred by mutant bla clones
Type: cell-based
Conditions: bla clone expressed in bacteria; listed as wild-type bla gene
Text: T7 RNA polymerase with the addition of 1000TM ribavirin 5′ triphosphate (dTRV) was used to transcribe (−) RNA from the bla gene θ-lactamase gene for antibiotic resistance) on plasmid pEGX205. The bla RNA was subsequently converted to cDNA using M-MuLV-reverse transcriptase, amplified with Pfu DNA polymerase, cut with appropriate restriction enzymes, and cloned into the plasmid pEGX212. Clones resistant to increased concentrations of cefotaxime were selected and sequenced (the minimum inhibitory concentration [MIC] for the wild-type bla gene was 0.02 ug/ml). […] When clone CefR E1 RNA was taken through a second round of T7 polymerase/dTRV mutagenesis, 3 clones containing 3 or more mutations were selected with one clone (F-E1-1) showing a 10,000-fold increase in cefotaxime resistance over the wild-type. No resistant mutants were isolated in the mutation/selection experiments that used T7 polymerase alone.

B1: Wild-type: wild-type TEM-1 β-lactamase (bla) gene for antibiotic resistance (protein, UniProt P62593 24-286, looked up)
Beta-lactamase TEM: HPETLVKVKDAEDQLGARVGYIELDLNSGKILESFRPEERFPMMSTFKVLLCGAVLSRVDAGQEQLGRRIHYSQNDLVEYSPVTEKHLTDGMTVRELCSAAITMSDNTAANLLLTTIGGPKELTAFLHNMGDHVTRLDRWEPELNEAIPNDERDTTMPAAMATTLRKLLTGELLTLASRQQLIDWMEADKVAGPLLRSALPAGWFIADKSGAGERGSRGIIAALGPDGKPSRIVVIYTTGSQATMDERNRQIAEIGASLIKHW
cefotaxime minimum inhibitory concentration (MIC): 0.02 µg/mL
